Series [1] has as its target FBA6 protein expressed and purified from E. coli (Arabidopsis) (UniProt Q9SJQ9). The experiment in a line: microscale thermophoresis (MST), FBA6 purified from E. coli. In general terms: Microscale thermophoresis detects binding through changes in fluorescence in a small temperature gradient.
The target of series [2] is TIA1 protein (recombinant, purchased from Origene) (human) (UniProt P31483). The experiment in a line: MST self-assembly, labelled TIA1 titrated with non-labeled TIA1, without 2′,3′-cAMP.
Series [3] shares this target. Put plainly: MST self-assembly, labelled TIA1 titrated with non-labeled TIA1, in the presence of 500 µM 2′,3′-cAMP.
Series [4] concerns the molecule itself. Put plainly: MST self-assembly, labelled Rbp47b titrated with non-labeled Rbp47b, without 2′,3′-cAMP. The method, then:
(§1) MST measurements were performed using a Monolith NT.115 instrument (NanoTemper, München, Germany). Capillaries were loaded into the instrument as sets of 13-16 point ligand titrations. […] Excitation was optimized by varying the LED power to yield emission intensities above 200 AU, corresponding to 10-50 nM labeled protein. Monolith power was set to 60%. Ligands [2′,3′-cAMP (Sigma A9376)] and [3′,5′-cAMP (Sigma A6885)] were dissolved in PBS. 0.5% Tween and premium coated capillaries were used to prevent sticking. […] MO Affinity Analysis software was used to analyze (Kd calculation) and visualize the data. Presented data are from 2-3 technical replicates.

Series [5] deals with the molecule itself. The experiment in a line: MST self-assembly, labelled Rbp47b titrated with non-labeled Rbp47b, in the presence of 50 µM 2′,3′-cAMP. The method, then:
as §1

The values below come from patent US20190361012A1 (published 2019).

As a reminder, the Kd is a measure of binding affinity in units of concentration.

Chain of FBA6 protein expressed and purified from E. coli (Arabidopsis) (Q9SJQ9 whole entry): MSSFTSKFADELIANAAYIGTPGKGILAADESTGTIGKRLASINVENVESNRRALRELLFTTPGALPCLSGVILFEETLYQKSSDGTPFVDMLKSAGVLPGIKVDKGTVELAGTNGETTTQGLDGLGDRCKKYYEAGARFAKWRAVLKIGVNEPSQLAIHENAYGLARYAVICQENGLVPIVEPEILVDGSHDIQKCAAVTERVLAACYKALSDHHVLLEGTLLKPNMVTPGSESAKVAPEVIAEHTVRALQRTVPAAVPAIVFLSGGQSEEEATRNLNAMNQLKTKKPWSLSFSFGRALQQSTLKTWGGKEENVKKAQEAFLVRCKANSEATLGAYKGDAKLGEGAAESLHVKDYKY

In series [1], L-Gly-L-Pro (peptide) had an equilibrium dissociation constant (Kd) of 200 nM.
Take “TIA1 protein (recombinant, purchased from Origene) (from UniProt P31483 1-386)”: the Kd in series [2] stood at 36.3 nM; in series [3] it was 20.6 nM.

B1: His6-Rbp47b (other, Arabidopsis)
chain: HHHHHHMQTTNGSDSTLATSGATPPNQQTPPPPQQWQQQQQQQQQWMAAMQYPPAAAMMMMQQQQMLMYPHQYVPYNQGPYQQHHPQLHQYGSYQQHQHQQHKAIDRGSGDDVKTLWVGDLLHWMDETYLHSCFSHTGEVSSVKVIRNKLTSQSEGYGFVEFLSRAAAEEVLQNYSGSVMPNSDQPFRINWASFSTGEKRAVENGPDLSVFVGDLSPDVTDVLLHETFSDRYPSVKSAKVVIDSNTGRSKGYGFVRFGDENERSRALTEMNGAYCSNRQMRVGIATPKRAIANQQQHSSQAVILAGGHGSNGSMGYGSQSDGESTNATIFVGGIDPDVIDEDLRQPFSQFGEVVSVKIPVGKGCGFVQFADRKSAEDAIESLNGTVIGKNTVRLSWGRSPNKQWRGDSGQQWNGGYSRGHGYNNGGGYANHHDSNNYHGEN
modifications: the labelled partner carries RED-NHS (amine reactive) dye; the titrated partner is non-labeled
notes: Cloned as His6-Rbp47b-GFP in E. coli; The fraction that had spontaneously lost GFP (His6-Rbp47b) was used for MST; In the self-assembly assay labelled Rbp47b was titrated with non-labeled Rbp47b; also called Rb47b
In the case of B1, the Kd in series [4] was 128 nM; in series [5], 8.9 nM.
